Article PMC5224484 (Nucleic Acids Research, 2016)

T1: seleno-methionine labeled SRP72-PBD (L31M/L65M) (human, UniProt O76094 8-166, L31M | L65M, seleno-methionine labeled)
T1 sequence (looked up): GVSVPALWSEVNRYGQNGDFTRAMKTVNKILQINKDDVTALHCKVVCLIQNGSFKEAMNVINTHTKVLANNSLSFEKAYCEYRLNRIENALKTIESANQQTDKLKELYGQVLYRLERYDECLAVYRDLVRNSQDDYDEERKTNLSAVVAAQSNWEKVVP

T2: human SRP72 protein-binding domain (SRP72-PBD, 8-166) (human, UniProt O76094 8-166)
T2 sequence (looked up): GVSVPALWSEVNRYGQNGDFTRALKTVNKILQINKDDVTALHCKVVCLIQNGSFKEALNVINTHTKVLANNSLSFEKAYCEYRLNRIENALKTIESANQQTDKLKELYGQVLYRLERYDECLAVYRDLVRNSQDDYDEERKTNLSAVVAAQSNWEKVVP


Assays:
[1] = biological target: T1, seleno-methionine labeled SRP72-PBD …; test: crystal structure
[2] = biological target: T2, human SRP72 protein-binding domain …; test: ITC

| binding result [1] | Kd [2] [nM] | dH [2] [kcal/mol] | Binder |
| --- | --- | --- | --- |
| binds | – | – | untagged human SRP68 protein-binding domain (SRP68-PBD, 546-614) (domain or fragment, UniProt Q9UHB9 546-614, looked up) SQVKDNKPLVERFETFCLDPSLVTKQANLVHFPPGFQPIPCKPLFFDLALNHVAFPPLEDKLEQKTKSG |
| – | 33 ± 11 | -15.7 ± 0.5 | His6-SRP68-PBD (human SRP68 546-614 from pETtrx1a) (domain or fragment, UniProt Q9UHB9 546-614, looked up) SQVKDNKPLVERFETFCLDPSLVTKQANLVHFPPGFQPIPCKPLFFDLALNHVAFPPLEDKLEQKTKSG |
